From PMC3567212 (Biochemistry, 2012)

Assays:
AUC [1] = biological target: the molecule itself; experiment: AUC
AUC [2] = biological target: the molecule itself; experiment: AUC; remark: listed apart in the source

Protein | % tetramer (AUC [1]) [%] | stoichiometry N (AUC [2])
Rhizobium etli pyruvate carboxylase R472S (enzyme, UniProt Q2K340 1-1154, looked up, covalently attached biotin prosthetic group on the BCCP domain) MPISKILVANRSEIAIRVFRAANELGIKTVAIWAEEDKLALHRFKADESYQVGRGPHLARDLGPIESYLSIDEVIRVAKLSGADAIHPGYGLLSESPEFVDACNKAGIIFIGPKADTMRQLGNKVAARNLAISVGVPVVPATEPLPDDMAEVAKMAAAIGYPVMLKASWGGGGRGMRVIRSEADLAKEVTEAKREAMAAFGKDEVYLEKLVERARHVESQILGDTHGNVVHLFERDCSVQRRNQKVVERAPAPYLSEAQRQELAAYSLKIAGATNYIGAGTVEYLMDADTGKFYFIEVNPRIQVEHTVTEVVTGIDIVKAQIHILDGAAIGTPQSGVPNQEDIRLNGHALQCRVTTEDPEHNFIPDYGRITAYRSASGFGIRLDGGTSYSGAIITRYYDPLLVKVTAWAPNPLEAISRMDRALREFRIRGVATNLTFLEAIIGHPKFRDNSYTTRFIDTTPELFQQVKRQDSATKLLTYLADVTVNGHPEAKDRPKPLENAARPVVPYANGNGVKDGTKQLLDTLGPKKFGEWMRNEKRVLLTDTTMRDGHQSLLATRMRTYDIARIAGTYSHALPNLLSLECWGGATFDVSMRFLTEDPWERLALIREGAPNLLLQMLLRGANGVGYTNYPDNVVKYFVRQAAKGGIDLFRVFDCLNWVENMRVSMDAIAEENKLCEAAICYTGDILNSARPKYDLKYYTNLAVELEKAGAHIIAVKDMAGLLKPAAAKVLFKALREATGLPIHFHTHDTSGIAAATVLAAVEAGVDAVDAAMDALSGNTSQPCLGSIVEALSGSERDPGLDPAWIRRISFYWEAVRNQYAAFESDLKGPASEVYLHEMPGGQFTNLKEQARSLGLETRWHQVAQAYADANQMFGDIVKVTPSSKVVGDMALMMVSQDLTVADVVSPDREVSFPESVVSMLKGDLGQPPSGWPEALQKKALKGEKPYTVRPGSLLKEADLDAERKVIEKKLEREVSDFEFASYLMYPKVFTDFALASDTYGPVSVLPTPAYFYGLADGEELFADIEKGKTLVIVNQAVSATDSQGMVTVFFELNGQPRRIKVPDRAHGATGAAVRRKAEPGNAAHVGAPMPGVISRVFVSSGQAVNAGDVLVSIEAMKMETAIHAEKDGTIAEVLVKAGDQIDAKDLLAVYGG | 72 | 4
Rhizobium etli pyruvate carboxylase R427K (enzyme, UniProt Q2K340 1-1154, looked up, covalently attached biotin prosthetic group on the BCCP domain) MPISKILVANRSEIAIRVFRAANELGIKTVAIWAEEDKLALHRFKADESYQVGRGPHLARDLGPIESYLSIDEVIRVAKLSGADAIHPGYGLLSESPEFVDACNKAGIIFIGPKADTMRQLGNKVAARNLAISVGVPVVPATEPLPDDMAEVAKMAAAIGYPVMLKASWGGGGRGMRVIRSEADLAKEVTEAKREAMAAFGKDEVYLEKLVERARHVESQILGDTHGNVVHLFERDCSVQRRNQKVVERAPAPYLSEAQRQELAAYSLKIAGATNYIGAGTVEYLMDADTGKFYFIEVNPRIQVEHTVTEVVTGIDIVKAQIHILDGAAIGTPQSGVPNQEDIRLNGHALQCRVTTEDPEHNFIPDYGRITAYRSASGFGIRLDGGTSYSGAIITRYYDPLLVKVTAWAPNPLEAISRMDRALREFKIRGVATNLTFLEAIIGHPKFRDNSYTTRFIDTTPELFQQVKRQDRATKLLTYLADVTVNGHPEAKDRPKPLENAARPVVPYANGNGVKDGTKQLLDTLGPKKFGEWMRNEKRVLLTDTTMRDGHQSLLATRMRTYDIARIAGTYSHALPNLLSLECWGGATFDVSMRFLTEDPWERLALIREGAPNLLLQMLLRGANGVGYTNYPDNVVKYFVRQAAKGGIDLFRVFDCLNWVENMRVSMDAIAEENKLCEAAICYTGDILNSARPKYDLKYYTNLAVELEKAGAHIIAVKDMAGLLKPAAAKVLFKALREATGLPIHFHTHDTSGIAAATVLAAVEAGVDAVDAAMDALSGNTSQPCLGSIVEALSGSERDPGLDPAWIRRISFYWEAVRNQYAAFESDLKGPASEVYLHEMPGGQFTNLKEQARSLGLETRWHQVAQAYADANQMFGDIVKVTPSSKVVGDMALMMVSQDLTVADVVSPDREVSFPESVVSMLKGDLGQPPSGWPEALQKKALKGEKPYTVRPGSLLKEADLDAERKVIEKKLEREVSDFEFASYLMYPKVFTDFALASDTYGPVSVLPTPAYFYGLADGEELFADIEKGKTLVIVNQAVSATDSQGMVTVFFELNGQPRRIKVPDRAHGATGAAVRRKAEPGNAAHVGAPMPGVISRVFVSSGQAVNAGDVLVSIEAMKMETAIHAEKDGTIAEVLVKAGDQIDAKDLLAVYGG | 75 | 4
Rhizobium etli pyruvate carboxylase R472K (enzyme, UniProt Q2K340 1-1154, looked up, covalently attached biotin prosthetic group on the BCCP domain) MPISKILVANRSEIAIRVFRAANELGIKTVAIWAEEDKLALHRFKADESYQVGRGPHLARDLGPIESYLSIDEVIRVAKLSGADAIHPGYGLLSESPEFVDACNKAGIIFIGPKADTMRQLGNKVAARNLAISVGVPVVPATEPLPDDMAEVAKMAAAIGYPVMLKASWGGGGRGMRVIRSEADLAKEVTEAKREAMAAFGKDEVYLEKLVERARHVESQILGDTHGNVVHLFERDCSVQRRNQKVVERAPAPYLSEAQRQELAAYSLKIAGATNYIGAGTVEYLMDADTGKFYFIEVNPRIQVEHTVTEVVTGIDIVKAQIHILDGAAIGTPQSGVPNQEDIRLNGHALQCRVTTEDPEHNFIPDYGRITAYRSASGFGIRLDGGTSYSGAIITRYYDPLLVKVTAWAPNPLEAISRMDRALREFRIRGVATNLTFLEAIIGHPKFRDNSYTTRFIDTTPELFQQVKRQDKATKLLTYLADVTVNGHPEAKDRPKPLENAARPVVPYANGNGVKDGTKQLLDTLGPKKFGEWMRNEKRVLLTDTTMRDGHQSLLATRMRTYDIARIAGTYSHALPNLLSLECWGGATFDVSMRFLTEDPWERLALIREGAPNLLLQMLLRGANGVGYTNYPDNVVKYFVRQAAKGGIDLFRVFDCLNWVENMRVSMDAIAEENKLCEAAICYTGDILNSARPKYDLKYYTNLAVELEKAGAHIIAVKDMAGLLKPAAAKVLFKALREATGLPIHFHTHDTSGIAAATVLAAVEAGVDAVDAAMDALSGNTSQPCLGSIVEALSGSERDPGLDPAWIRRISFYWEAVRNQYAAFESDLKGPASEVYLHEMPGGQFTNLKEQARSLGLETRWHQVAQAYADANQMFGDIVKVTPSSKVVGDMALMMVSQDLTVADVVSPDREVSFPESVVSMLKGDLGQPPSGWPEALQKKALKGEKPYTVRPGSLLKEADLDAERKVIEKKLEREVSDFEFASYLMYPKVFTDFALASDTYGPVSVLPTPAYFYGLADGEELFADIEKGKTLVIVNQAVSATDSQGMVTVFFELNGQPRRIKVPDRAHGATGAAVRRKAEPGNAAHVGAPMPGVISRVFVSSGQAVNAGDVLVSIEAMKMETAIHAEKDGTIAEVLVKAGDQIDAKDLLAVYGG |  | 4
